Residue numbers refer to the chain shown, from its start.
Tests used:
[1] = target: T1, His-tagged human CTLA-4 (CT4-H5229; Acro Biosystems) (human, UniProt P16410 36-161); test: SPR (Carterra)
T1 construct: bought soluble protein; also called soluble human CTLA-4; recombinant human CTLA-4; not shown: His tag
Experimental: (§1) Then, goat anti-Human IgG Fc (Southern Biotech 2047-01) was coupled for 10 minutes at […] in 10 mM Sodim Acetate pH 4.5 (Carterra Inc.). The surface was then deactivated with 1 M ethanolamine pH 8.5 (Carterra Inc.). Running buffer used for the lawn immobilization was HBS-EPC (10 mM HEPES, 150 mM NaCl, 3 mM EDTA, 0.05% Tween 20, pH 7.4; Teknova).
(§2) The sensor chip was then transferred to a continuous flow microspotter (CFM; Carterra Inc.) for array capturing. The mAb supernatants were diluted 50-fold ([…] final concentration) into HBS-EPC with 1 mg/mL BSA. The samples were each captured twice with 15-minute and 4-minute capture steps on the first and second prints, respectively, to create multiple densities, using a […] flow rate. The running buffer in the CFM was also HBS-EPC.
(§3) Next, the sensor chip was loaded onto an SPR reader (MX-96 system; Ibis Technologies) for the kinetic analysis. CTLA-4 was injected at five increasing concentrations in a four-fold dilution series with concentrations of 1.95, 7.8, 31.25, 125, and 500 nM in running buffer (HBS-EPC with 1.0 mg/mL BSA). CTLA-4 injections were 5 minutes with a 15-minute dissociation at […] in a non-regenerative kinetic series. An injection of the goat anti-Human IgG Fc capture antibody at […] was injected at the end of the series to verify the capture level of each mAb. Binding data was double referenced by subtracting an interspot surface and a blank injection and analyzed for ka (on-rate), kd (off-rate), and KD (affinity) using the Kinetic Interaction Tool software (Carterra Inc.).

[2] = target: T2, human CTLA-4 expressed on the cell surface (human, UniProt P16410 36-223); test: cell-based or functional assay
CD27 on CHO cells [3] = target: T3, CD27 on CHO cells (UniProt P26842 20-260, limits assumed); test: flow cytometry, mixed CTLA-4+ and CD27+ CHO cells
T3 construct: whole, on cells; also called CD27+ CHO cells; irrelevant antigen (CD27)
Experimental: To determine if the CTLA-4 mAbs bound the appropriate antigen expressed on the surface of mammalian cells, CHO cell lines stably expressing human CTLA-4 or an irrelevant antigen (CD27) were generated. Cells (0.5×10⁶ each cell line) were combined and washed with MACS buffer (Dulbecco's Phosphate Buffered Saline [DPBS], with 0.5% bovine serum albumin [BSA], and 2 mM ethylenediaminetetraacetic acid [EDTA]). The cells were incubated with 10 μg/mL anti-CTLA-4 for 30 min at 4° C., then excess, unbound mAbs were removed by washing twice with MACS buffer. The cells were then stained with PE-conjugated anti-Human IgG Fc antibody (clone M1310G05, BioLegend 410720, San Diego, Calif., USA) to detect bound anti-CTLA-4 and with fluorescein isothiocyanate (FITC)-conjugated anti-CD27 (clone 0323, BioLegend 302806, San Diego, Calif., USA) to distinguish the cells expressing the irrelevant antigen. Cells were washed twice with MACS buffer, fixed with 4% paraformaldehyde fixation buffer (BioLegend 420801, San Diego, Calif., USA) for 20 minutes at room temperature and washed twice more with MACS buffer. […] Binding of mAbs to CTLA-4 on the cell surface was determined using LSR II (BD Biosciences, San Jose, Calif., USA) or CytoFLEX LX (Beckman Coulter, Brea. Calif., USA) flow cytometers and analyzed using FlowJo (v10.6.1, BD Biosciences, San Jose, Calif., USA).

[4] = target: T2, human CTLA-4 expressed on the cell …; test: flow cytometry, 10 µg/mL mAb, geometric MFI
Experimental: (§4) Table 23. In vitro characterization of scFvs reformatted as full-length antibodies. kon, koff, and KD of the indicated CTLA-4 mAbs for soluble human CTLA-4 was determined by SPR (Carterra). Geometric MFI of the indicated CTLA-4 mAbs bound to CTLA-4⁺ or CD27⁺ CHO cells as detected by a secondary human IgG antibody and flow cytometry. Affinity (KD) of the indicated CTLA-4 mAbs for soluble cynomolgus CTLA-4 was determined by a single antigen concentration BLI measurement (Octet). […] Due to constraints on sample size in each Promega bioassay kit, this set of aCTLA-4 mAbs was analyzed using multiple plates (plate letters correspond to Plate A-D in FIG. 20D).
(§5) To determine if the CTLA-4 mAbs bound the appropriate antigen expressed on the surface of mammalian cells, CHO cell lines stably expressing human CTLA-4 or an irrelevant antigen (CD27) were generated. Cells (0.5×10⁶ each cell line) were combined and washed with MACS buffer (Dulbecco's Phosphate Buffered Saline [DPBS], with 0.5% bovine serum albumin [BSA], and 2 mM ethylenediaminetetraacetic acid [EDTA]). The cells were incubated with 10 μg/mL anti-CTLA-4 for 30 min at 4° C., then excess, unbound mAbs were removed by washing twice with MACS buffer. The cells were then stained with PE-conjugated anti-Human IgG Fc antibody (clone M1310G05, BioLegend 410720, San Diego, Calif., USA) to detect bound anti-CTLA-4 and with fluorescein isothiocyanate (FITC)-conjugated anti-CD27 (clone 0323, BioLegend 302806, San Diego, Calif., USA) to distinguish the cells expressing the irrelevant antigen. Cells were washed twice with MACS buffer, fixed with 4% paraformaldehyde fixation buffer (BioLegend 420801, San Diego, Calif., USA) for 20 minutes at room temperature and washed twice more with MACS buffer.

CD27 on CHO cells [5] = target: T3, CD27 on CHO cells; test: flow cytometry, 10 µg/mL mAb, geometric MFI
Experimental: as §4, §5

[6] = target: T4, His-tagged cynomolgus CTLA-4 (CT4-C5227; Acro Biosystems) (cynomolgus, UniProt G7PL88 36-161); test: BLI (Octet), single antigen concentration
T4 construct: also called soluble cynomolgus CTLA-4; cyno CTLA-4
Experimental: as §4
Antibodies were loaded at 5 μg/mL onto Protein A biosensors that were dipped into 80 nM antigen, and kinetic constants were calculated using a monovalent model.

[7] = target: T1, His-tagged human CTLA-4 (CT4-H5229; …); test: SPR (Carterra), soluble human CTLA-4
[8] = target: T4, His-tagged cynomolgus CTLA-4 …; test: BLI (Octet)
Experimental: (§6) The binding specificity and affinity of each full-length antibody towards CTLA-4 were determined using biolayer interferometry (BLI) and/or surface plasmon resonance (SPR). Anti-cyno CTLA-4 and anti-mouse CTLA-4 affinities were tested using ForteBio (BLI). Anti-human CTLA-4 affinities were measured using Carterra (SPR).
(§7) For BLI, antibodies were loaded onto an Anti-Human IgG Fc (AHC) biosensor using the Octet Red96 system (ForteBio). Loaded biosensors were dipped into antigen dilutions beginning at 300 nM, with 6 serial dilutions at 1:3. Kinetic analysis was performed using a 1:1 binding model and global fitting.

[9] = target: T1, His-tagged human CTLA-4 (CT4-H5229; …); test: SPR (Carterra); remark: listed apart in the source
Experimental: as §1, §2, §3

[10] = target: T2, human CTLA-4 expressed on the cell …; test: cell-based or functional assay; remark: listed apart in the source
mouse CTLA-4 = mouse CTLA-4 (mouse, UniProt P09793 36-161, limits assumed); test: BLI (Octet)
Experimental: as §6, §7

T4 sequence (G7PL88 entry or part of it limits assumed, form in doubt): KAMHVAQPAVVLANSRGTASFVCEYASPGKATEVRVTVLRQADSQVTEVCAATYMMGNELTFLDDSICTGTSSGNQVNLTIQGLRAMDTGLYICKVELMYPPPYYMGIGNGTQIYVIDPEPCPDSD
Chain of mouse CTLA-4 (P09793 36-161 limits assumed): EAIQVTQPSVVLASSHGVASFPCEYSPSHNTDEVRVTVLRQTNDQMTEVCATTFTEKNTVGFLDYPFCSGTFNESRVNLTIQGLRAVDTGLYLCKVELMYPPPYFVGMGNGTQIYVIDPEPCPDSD
T3 sequence (P26842 20-260 limits assumed): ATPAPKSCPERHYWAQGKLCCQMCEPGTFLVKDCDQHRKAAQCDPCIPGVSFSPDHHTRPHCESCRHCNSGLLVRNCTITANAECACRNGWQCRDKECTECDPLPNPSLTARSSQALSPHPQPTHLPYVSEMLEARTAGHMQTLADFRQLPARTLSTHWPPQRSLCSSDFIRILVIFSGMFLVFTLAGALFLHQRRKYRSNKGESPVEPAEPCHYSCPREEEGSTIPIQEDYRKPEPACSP
T1 sequence (P16410 36-161 limits assumed): as the sequence (G7PL88 entry or part of it limits assumed, form in doubt) above, with N14S, T18I, M106L counted along it
T2 sequence (P16410 36-223 limits assumed): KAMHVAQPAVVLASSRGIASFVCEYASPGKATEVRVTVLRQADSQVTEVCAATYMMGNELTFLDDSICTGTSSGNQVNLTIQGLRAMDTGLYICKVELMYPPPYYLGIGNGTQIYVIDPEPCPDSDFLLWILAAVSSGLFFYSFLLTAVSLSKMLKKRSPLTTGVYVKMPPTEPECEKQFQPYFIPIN

B1: antibody A13 (L13H13) (antibody, V domains shown)
VH: QVQLVESGGGVVQPGRSLRLSCAASGFTFSSYGMHWVRQAPGKGLEWVAVIWYDGRNKDYADSVKGRITISRDNSKNTLYLQMNSLRAEDTAVYYCARGGLLGPYFDYWGQGTLVTVSS
VL: not shown
notes: also called aCTLA-4.14
With B1 the Kd [1] was 3.2 nM, the “Promega assay % inhibition” value [2] was 13.3% and the “Promega assay antagonist (EC50, ug/mL)” value [2] was 0.09 µg/mL. For the same binder, the binding result (CD27 on CHO cells [3]) was “no binding (tested: 10 µg/mL)”, the “MFI of CTLA-4+ CHO cells” value [4] was 1024 and the “MFI of CD27+ CHO cells” value (CD27 on CHO cells [5]) was 17. The Kd [6] was 9.6 nM, the Kd [7] was 3.2 nM and the koff [7] was 0.00042 s⁻¹. It also gave a kon [7] of 130000 M⁻¹ s⁻¹, a Kd [8] of 9.6 nM and a Kd [9] of 3.2 nM. For the same binder, the koff [9] was 0.00042 s⁻¹, the kon [9] was 130000 M⁻¹ s⁻¹ and the “Cell-based blocking activity EC50” value [10] was 0.09 µg/mL. For the same binder, the “Cell-based blocking activity max signal (RLU)” value [10] was 73 RLU.

B2: antibody A6 (L6H6) (antibody, V domains shown)
VH: QVQLVESGGGVVQPGRSLRLSCAASGFTFSSYGMHWVRQAPGKGLEWVAVIWYDGSYKYYADSVKGRFTISRDDSKNTLYLQMSSLRAEDTAVYYCARAPHYAILTGYYEDYWGQGTLVTVSS
VL: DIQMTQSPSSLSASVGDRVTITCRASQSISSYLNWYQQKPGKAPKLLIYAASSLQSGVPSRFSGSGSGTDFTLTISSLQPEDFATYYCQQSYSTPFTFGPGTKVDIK
For B2, the Kd [1] was 5.7 nM, the “Promega assay % inhibition” value [2] was 61.7% and the “Promega assay antagonist (EC50, ug/mL)” value [2] was 0.18 µg/mL. The binding result (CD27 on CHO cells [3]) was “no binding (tested: 10 µg/mL)”, the “MFI of CTLA-4+ CHO cells” value [4] was 939 and the “MFI of CD27+ CHO cells” value (CD27 on CHO cells [5]) was 17.8. The Kd [6] was 1.6 nM, the Kd [7] was 5.7 nM and the koff [7] was 0.00035 s⁻¹. For the same binder, the kon [7] was 61000 M⁻¹ s⁻¹, the Kd [8] was 1.6 nM and the Kd (mouse CTLA-4) was 87.8 nM. The Kd [9] was 5.7 nM, the koff [9] was 0.00035 s⁻¹ and the kon [9] was 61000 M⁻¹ s⁻¹. For the same binder, the “Cell-based blocking activity EC50” value [10] was 0.18 µg/mL and the “Cell-based blocking activity max signal (RLU)” value [10] was 338 RLU.

B3: antibody A10 (L10H10) (antibody, V domains shown)
VH: QVQLVESGGGVVQPGRSLRLSCVASGFTLSSYGMHWVRQAPGKGLEWVAVIWYDGSNKHYADSVKGRFTISRDNSKNTLSLQMNSLRAEDTAVYYCARGGQLGPFDYWGQGTLVTVSS
VL: not shown
notes: also called aCTLA-4.22
B3 was tested, and the Kd [1] was 22 nM, the “Promega assay % inhibition” value [2] was 24.5% and the “Promega assay antagonist (EC50, ug/mL)” value [2] was 0.26 µg/mL. The binding result (CD27 on CHO cells [3]) was “no binding (tested: 10 µg/mL)”, the “MFI of CTLA-4+ CHO cells” value [4] was 641 and the “MFI of CD27+ CHO cells” value (CD27 on CHO cells [5]) was 15.2. For the same binder, the Kd [6] was 3.1 nM, the Kd [7] was 22 nM and the koff [7] was 0.00051 s⁻¹. For the same binder, the kon [7] was 23000 M⁻¹ s⁻¹, the Kd [8] was 3.1 nM and the binding result (mouse CTLA-4) was “no binding (tested: 300 nM)”. It also gave a Kd [9] of 22 nM, a koff [9] of 0.00051 s⁻¹ and a kon [9] of 23000 M⁻¹ s⁻¹. The “Cell-based blocking activity EC50” value [10] was 0.26 µg/mL and the “Cell-based blocking activity max signal (RLU)” value [10] was 134 RLU.

B4: antibody A8 (L8H8) (antibody, V domains shown)
VH: B3 VH with V23A, L29F, S31R, S56R, H59Y, S80Y, V93L, Y95S, G99A, Q101E
VL: EIVLTQSPGTLSLSPGERATLSCRASQSVSYLAWYQQKPGQAPRLLIYGASSRATGIPDRFSGSGSGTDFTLTISRLEPEDFAVYYCQQYGSSPWTFGQGTKVEIK
notes: also called aCTLA-4.1
With B4 the Kd [1] was 4.6 nM, the “Promega assay % inhibition” value [2] was 54.7% and the “Promega assay antagonist (EC50, ug/mL)” value [2] was 0.15 µg/mL. For the same binder, the binding result (CD27 on CHO cells [3]) was “no binding (tested: 10 µg/mL)”, the “MFI of CTLA-4+ CHO cells” value [4] was 1010 and the “MFI of CD27+ CHO cells” value (CD27 on CHO cells [5]) was 18.6. It also gave a Kd [6] of 1 nM, a Kd [7] of 4.6 nM and a koff [7] of 0.00039 s⁻¹. The kon [7] was 85000 M⁻¹ s⁻¹, the Kd [8] was 1 nM and the binding result (mouse CTLA-4) was “no binding (tested: 300 nM)”. It also gave a Kd [9] of 4.6 nM, a koff [9] of 0.00039 s⁻¹ and a kon [9] of 85000 M⁻¹ s⁻¹. For the same binder, the “Cell-based blocking activity EC50” value [10] was 0.1 µg/mL and the “Cell-based blocking activity max signal (RLU)” value [10] was 349 RLU.

B5: antibody A4 (L4H4) (antibody, V domains shown)
VH: QVQLVESGGGVVQPGRSLRISCAASGFTFSSYGIHWVRQAPGKGLQWVAVIWYDGRNKYYADSVKGRFTISRDNSKNTLYLQMNSLRAEDTAVYYCSRSGSFGAFDIWGQGTMVTVSS
VL: EIVLTQSPGTLSLSPGDRATLSCRASQSGSSSYLAWYQQKPGQAPRLLIYGASSRATGIPDRFSGSGSGTDFTLTISRLEPEDFAVYYCQQYGTSPFTSGPGTKVDIK
notes: also called aCTLA-4.29
In the case of B5, the Kd [1] is reported as 3 nM, the “Promega assay % inhibition” value [2] is reported as 81% and the “Promega assay antagonist (EC50, ug/mL)” value [2] is reported as 0.15 µg/mL. The binding result (CD27 on CHO cells [3]) was “no binding (tested: 10 µg/mL)”, the “MFI of CTLA-4+ CHO cells” value [4] was 999 and the “MFI of CD27+ CHO cells” value (CD27 on CHO cells [5]) was 16.3. For the same binder, the Kd [6] was 1.2 nM, the Kd [7] was 3 nM and the koff [7] was 0.00023 s⁻¹. For the same binder, the kon [7] was 76000 M⁻¹ s⁻¹, the Kd [8] was 1.2 nM and the binding result (mouse CTLA-4) was “no binding (tested: 300 nM)”. The Kd [9] was 3 nM, the koff [9] was 0.00023 s⁻¹ and the kon [9] was 76000 M⁻¹ s⁻¹. The “Cell-based blocking activity EC50” value [10] was 0.15 µg/mL and the “Cell-based blocking activity max signal (RLU)” value [10] was 444 RLU.
